From article PMC6982183 come the findings set out here.

This assay deals with human Hsp60 G190W mutant (human) (UniProt P10809). The assay is described as follows: SEC; Superdex 200 Increase 10/300 GL, 50 mM Tris-HCl (pH 7.8 at 25 °C), 2 mM DTT, 2 mM EDTA, 0.5 mg sample, 0.75 mL/min; size from calibration with molecular weight standards; before and after agitation.

Turning to “human Hsp60 G190W mutant (from UniProt P10809 53-573) (natural protein)”, the stoichiometry N (as a rule, a count of units in the complex or per binding partner) was 14.
